Laboratory results as given in US20140274782A1, “AFFINITY REAGENTS AND METHODS FOR DETECTION, PURIFICATION, AND PROTEOMIC ANALYSIS OF METHYLATED PROTEINS” (The Board of Trustees of the Leland Stanford Junior …, priority 2013, published 2014).

Biological target: T1, G9a and GLP (Homo sapiens, UniProt Q96KQ7+Q9H9B1)
T1 construct: endogenous in cells; host or cells: HEK 293T
T1 sequence (Q96KQ7 2-1210 limits assumed): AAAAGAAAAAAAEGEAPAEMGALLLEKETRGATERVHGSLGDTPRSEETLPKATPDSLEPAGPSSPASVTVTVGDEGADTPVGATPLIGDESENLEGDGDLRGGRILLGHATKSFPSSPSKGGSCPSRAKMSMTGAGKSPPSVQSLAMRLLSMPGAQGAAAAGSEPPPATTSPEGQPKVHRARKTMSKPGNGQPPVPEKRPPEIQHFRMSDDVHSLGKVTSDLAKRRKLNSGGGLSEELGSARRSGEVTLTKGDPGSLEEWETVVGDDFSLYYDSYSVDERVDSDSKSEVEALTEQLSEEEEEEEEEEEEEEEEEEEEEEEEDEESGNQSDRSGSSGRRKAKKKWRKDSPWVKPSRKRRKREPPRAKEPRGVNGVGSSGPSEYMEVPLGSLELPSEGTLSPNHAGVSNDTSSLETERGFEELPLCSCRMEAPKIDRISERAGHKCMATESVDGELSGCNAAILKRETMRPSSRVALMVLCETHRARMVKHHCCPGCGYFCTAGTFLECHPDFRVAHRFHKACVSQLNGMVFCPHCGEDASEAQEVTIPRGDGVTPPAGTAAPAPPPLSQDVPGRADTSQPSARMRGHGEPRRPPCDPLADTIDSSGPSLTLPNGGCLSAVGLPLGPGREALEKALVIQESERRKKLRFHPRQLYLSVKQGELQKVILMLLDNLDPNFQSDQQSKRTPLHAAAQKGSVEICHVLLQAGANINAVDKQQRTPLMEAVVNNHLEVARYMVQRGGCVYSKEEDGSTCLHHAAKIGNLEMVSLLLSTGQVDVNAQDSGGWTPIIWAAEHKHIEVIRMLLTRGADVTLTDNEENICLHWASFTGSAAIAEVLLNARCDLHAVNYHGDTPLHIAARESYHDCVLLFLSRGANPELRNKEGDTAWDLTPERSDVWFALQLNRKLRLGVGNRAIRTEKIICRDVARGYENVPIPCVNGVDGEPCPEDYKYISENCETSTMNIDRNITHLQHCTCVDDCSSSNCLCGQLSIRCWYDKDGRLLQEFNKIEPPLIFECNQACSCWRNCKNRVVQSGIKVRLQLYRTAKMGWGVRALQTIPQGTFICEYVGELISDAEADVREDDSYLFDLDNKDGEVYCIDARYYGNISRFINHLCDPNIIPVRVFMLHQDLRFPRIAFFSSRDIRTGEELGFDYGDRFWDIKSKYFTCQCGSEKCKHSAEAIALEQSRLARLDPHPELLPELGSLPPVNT
T1 sequence (Q9H9B1 2-1298 limits assumed): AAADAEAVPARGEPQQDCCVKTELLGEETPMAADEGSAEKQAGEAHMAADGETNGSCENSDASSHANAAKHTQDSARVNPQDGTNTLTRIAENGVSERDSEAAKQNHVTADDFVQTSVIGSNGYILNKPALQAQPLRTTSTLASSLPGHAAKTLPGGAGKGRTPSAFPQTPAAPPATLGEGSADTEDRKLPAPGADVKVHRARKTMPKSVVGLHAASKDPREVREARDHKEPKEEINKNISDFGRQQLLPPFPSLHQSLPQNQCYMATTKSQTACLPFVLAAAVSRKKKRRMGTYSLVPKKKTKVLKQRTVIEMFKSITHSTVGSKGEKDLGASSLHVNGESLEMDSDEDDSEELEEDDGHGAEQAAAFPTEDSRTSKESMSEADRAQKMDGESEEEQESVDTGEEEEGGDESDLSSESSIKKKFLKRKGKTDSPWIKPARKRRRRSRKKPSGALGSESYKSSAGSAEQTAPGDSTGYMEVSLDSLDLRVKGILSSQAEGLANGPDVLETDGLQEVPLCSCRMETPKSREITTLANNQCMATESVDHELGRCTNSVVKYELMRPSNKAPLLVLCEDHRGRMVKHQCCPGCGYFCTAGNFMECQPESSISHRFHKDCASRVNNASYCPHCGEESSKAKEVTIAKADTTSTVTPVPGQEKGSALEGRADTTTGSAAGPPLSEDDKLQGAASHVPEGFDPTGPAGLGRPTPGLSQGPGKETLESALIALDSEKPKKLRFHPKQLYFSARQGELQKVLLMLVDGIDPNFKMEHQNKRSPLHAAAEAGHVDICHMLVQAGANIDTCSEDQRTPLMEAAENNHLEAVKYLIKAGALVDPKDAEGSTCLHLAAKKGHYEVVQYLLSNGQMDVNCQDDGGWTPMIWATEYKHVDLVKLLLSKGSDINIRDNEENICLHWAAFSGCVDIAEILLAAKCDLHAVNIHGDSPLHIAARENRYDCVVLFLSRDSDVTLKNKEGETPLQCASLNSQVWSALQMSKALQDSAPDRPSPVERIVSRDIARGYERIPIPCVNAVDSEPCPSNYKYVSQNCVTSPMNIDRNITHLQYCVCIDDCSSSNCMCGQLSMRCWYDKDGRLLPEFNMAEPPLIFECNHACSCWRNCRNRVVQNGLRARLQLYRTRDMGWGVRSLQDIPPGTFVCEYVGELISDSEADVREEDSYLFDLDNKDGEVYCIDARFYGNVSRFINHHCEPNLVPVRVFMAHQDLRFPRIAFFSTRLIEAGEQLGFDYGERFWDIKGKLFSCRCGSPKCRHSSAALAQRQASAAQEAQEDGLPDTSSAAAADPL
Assay: Triple SILAC pull-down after UNC0638 treatment of 293T cells, DMSO/UNC0638 ratio of protein captured by 3×MBT;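 also: mass spectrometry (Q-Exactive) SILAC quantitation, DMSO/UNC0638 ratio computed after subtracting 3×MBTD355N mutant pull-down background, only proteins with at least twofold 3×MBT over mutant signal considered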
Format: cell-based
Conditions: for Relative to UNC0638 UNC Heavy / Relative to UNC0638 UNC Light: SILAC ratio DMSO/UNC0638 of protein pulled down with 3xMBT; for Relative to UNC0638 UNC Heavy: UNC0638 in heavy SILAC media; for Relative to UNC0638 UNC Light: UNC0638 in light SILAC media; for Protein Ratios DMSO/UNC0638: SILAC ratio of protein captured by 3xMBT, 293T cells treated 24 hours with UNC0638 at 2.5 μM or DMSO; for Relative to UNC0638 Average: average of UNC Light and UNC Heavy experiments; for Candidate G9a/GLP target: reduced association with 3xMBT after UNC0638 treatment

| Substance | Relative to UNC0638 UNC Heavy [log base 2] | Relative to UNC0638 UNC Light [log base 2] | Protein Ratios DMSO/UNC0638 | Relative to UNC0638 Average [log base 2] | Candidate G9a/GLP target |
| --- | --- | --- | --- | --- | --- |
| DNA ligase 1 | 0.83 | 1.06 | 1.9 | 0.95 | ✓ |
| MCM7: protein with methylated lysine identified in 3xMBT pull-down | 0.12 | 0.10 | – | 0.11 | – |
| MSH6: protein with methylated lysine identified in 3xMBT pull-down | 0.18 | 0.06 | – | 0.12 | – |
| Protein Wiz | 0.83 | 0.29 | 1.5 | 0.56 | ✓ |
| RBM25: protein with methylated lysine identified in 3xMBT pull-down | 0.25 | 0.29 | – | 0.27 | – |
| SSRP1: protein with methylated lysine identified in 3xMBT pull-down | 0.00 | 0.26 | – | 0.13 | – |
